Measurements published in patent US20250197490A1 (HBM ALPHA THERAPEUTICS, published 2025).
Values joined by “and” are separate entries in the source; they are usually repeats but may differ in a detail not shown here. Identical values can stand only once. Like-named read-outs stand apart in the source and are kept apart here.

T1: corticotropin-releasing hormone (CRH) peptide (human and mouse, UniProt P01143 145-185 (rat entry), not fully specified)
T1 peptide: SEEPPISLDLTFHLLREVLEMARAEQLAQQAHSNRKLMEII

T2: CRH (C-Terminal Region, NT Biotin) (N-terminal Biotin-K; C-terminal NH2)
T2 construct: central region plus C-terminal region of CRH; also called C-Terminal CRH; C-Ter-CRH
T2 peptide: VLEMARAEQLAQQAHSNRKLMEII

T3: biotinylated CRH (human and mouse, UniProt P01143 145-185 (rat entry), not fully specified; biotin; which end is not stated for the result (NT-biotin and CT-biotin forms were used))
T3 construct: also called biotin-CRH; CRH (NT biotin)
T3 peptide: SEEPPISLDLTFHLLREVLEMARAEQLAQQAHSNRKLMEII

T4: N-Terminal CRH peptide (N-terminal region plus central region, CT biotin) (human and mouse, C-terminal K-Biotin)
T4 construct: also called N-Ter-CRH
T4 peptide: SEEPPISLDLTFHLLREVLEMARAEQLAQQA

T5: human UCN2 peptide, biotinylated (human, UniProt Q96RP3 72-109, limits assumed, biotin at N- or C-terminus)
T5 construct: also called hUCN2 (NT Biotin); hUCN2 (CT Biotin)
T5 peptide (looked up): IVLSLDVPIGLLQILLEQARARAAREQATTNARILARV

T6: human UCN1 peptide, biotinylated (human, UniProt P55089 83-122, biotin at N- or C-terminus)
T6 construct: also called hUCN1 (NT Biotin); hUCN1 (CT Biotin)
T6 peptide (looked up): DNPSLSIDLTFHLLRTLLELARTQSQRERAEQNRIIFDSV

T7: human UCN3 peptide, biotinylated (human, UniProt Q969E3 120-157, biotin at N- or C-terminus)
T7 construct: also called hUCN3 (NT Biotin); hUCN3 (CT Biotin)
T7 peptide (looked up): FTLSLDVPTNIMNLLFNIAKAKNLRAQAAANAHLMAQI

T8: CRH (Central Region, NT Biotin) (N-terminal Biotin-K; C-terminal NH2)
T8 construct: also called Central CRH
T8 peptide: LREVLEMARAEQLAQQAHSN

T9: CRH (Central Region, CT Biotin) (C-terminal K-Biotin)
T9 construct: also called Central CRH
T9 peptide: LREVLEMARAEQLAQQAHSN

B1: PR302309-8 (antibody, human IgG1, kappa, V domains shown)
VH: QIQLVQSGSELKKPGASVKVSCKASGYTFTNYGMNWVRQAPGQGLEWMGWINTYTGEPIYTDDFKGRFVFSLDTSVSTAYLQISSLKAEDTAVYYCSRSTMITTGGVFAYWGQGTLVTVSS
VL: DVVMTQSPLSLPVTLGQPASISCRSSQTIVHSDGNTYLEWYQQRPGQSPRLLIYKVSNRFSGVPDRFSGSGSGTDFTLKISRVEAEDLGVYYCFQGSHVPWTFGGGTKVEIKR
B2: PR302341-67 (antibody, human IgG1, kappa, V domains shown)
VH: QVQLVQSGAEVKKPGASVKVSCKASGYTFTDYFMKWVRQAPGQGLEWMGVINPNNGDIFYNQKFKGRVTMTVDKSTSTAYMELSSLRSEDTAVYYCARGTDRALFAYWGQGTLVTVSS
VL: DVVMTQTPLSSPVTLGQPASISCRSGQSIVHSDANTYLEWYQQRPGQPPRLLIYKVSNRFSGVPDRFSGSGAGTDFTLKISRVEAEDLGVYYCFQGSHIPWTFGGGTKVEIKR
B3: PR302334 (antibody, human IgG1, kappa, V domains shown)
VH: EVKLVESGGGLVKPGGSLKLSCAASGFTFSTYAMSWVRQTPEKRLEWVASIRSGGTTYYPDSVKGRFTISRDNARNILYLQMSSLRSEDTAIYYCTRGIDWGQGTLVTVSA
VL: NIVMTQTPKFLLVSAGDRITITCKASQSVNNDVAWYQQKPGQSPKLLIYYASNRYTGVPDRFTGSGYGTDFTFTISTVQAEDLAVYFCQQDYSSWTFGGGTNLEIKR
B4: PR006746 (antibody, human IgG1, kappa, V domains shown)
VH: EVQLVESGGGLVQPGGSLRLSCAASGFTFSDNWMSWVRQAPGKGLEWVANIKQDSSENYYVDSVKGRFTISRDNAKNSLYLQMNSLRAEDTAVYYCSRGLALWGWGQGTLVTVSS
VL: DIVMTHSPLSLPVTPGDPASISCRSSQSLLHSTGYNYLDWYLQKPGQSPQLLIYLGSNRASGVPDRFSGSGSGTDFTLKFIRVEAEDVGVYYCMQALQTPYTFGQGTKLEIKR
B5: PR006143 (antibody, human IgG1, kappa, V domains shown)
VH: EVQLVESGGVLVQPGGSLRLSCAASGFTFSSYWMTWVRQAPGKGLEWVANIKQEGSEKYYVDSVKGRFTISRDNAKNSLFLQMNSLRAEDTAVYYCARTLIFDYWGQGTLVTVSS
VL: DIVMTQSPLSLPVTPGEPASISCRSSQSLLHSTGYHSLEWYLQKPGQSPQLLIYLGSNRASGVPDRFSGSGSGTDFTLKISRVEAEDVGIYYCMQTLQTPITFGQGTRLEIKR
B6: PR006145 (antibody, human IgG1, kappa, V domains shown)
VH: EVQLVESGGVLVQPGGSLRLSCAASGFTFSSYWMTWVRQAPGKGLEWVANIKQEGSEKYYVDSVKGRFTISRDNAKNSLFLQMNSLRAEDTAVYYCARTLIFDYWGQGTLVTVSS
VL: DIVMTQSPLSLPVTPGEPASISCRSSQSLLHSTGYSSLEWYLQKPGQSPQLLIYLGSNRASGVPDRFSGSGSGTDFTLKISRVEAEDVGIYYCMQTLQTPITFGQGTRLEIKR

Columns and labels:
[1] = molecular target: T1, corticotropin-releasing hormone (CRH) …; assay: cell-based or functional assay
[2] = molecular target: T2, CRH (C-Terminal Region, NT Biotin); assay: ELISA, CRH C-terminal region peptide (NT biotin)
Summary of the method: (§1)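 Plates were coated overnight at 4° C with streptavidin at 2 μg/ml in PBS to capture the biotinylated peptide. Bound antibody was detected with HRP-conjugated goat anti-human IgG (H+L), 1 hour at 37° C, then TMB for 15 minutes at room temperature; OD450 nm was read after stopping.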

biotinylated CRH [3] = molecular target: T3, biotinylated CRH; assay: Octet in-tandem competition on captured CRH; row = 1st mAb; competitor (2nd mAb) PR302309-8
Description: (§2) SA sensors (Fortebio, Cat #18-5019) were hydrated in running buffer for 10 mins.

biotinylated CRH [4] = molecular target: T3, biotinylated CRH; assay: Octet in-tandem competition on captured CRH; row = 1st mAb; competitor (2nd mAb) PR302334
Description: as §2

biotinylated CRH [5] = molecular target: T3, biotinylated CRH; assay: Octet in-tandem competition on captured CRH; row = 1st mAb; competitor (2nd mAb) PR006669
Description: as §2

[6] = molecular target: T4, N-Terminal CRH peptide (N-terminal …); assay: ELISA, N-Ter-CRH (CT-biotin) on streptavidin
Summary of the method: as §1

biotinylated CRH [7] = molecular target: T3, biotinylated CRH; assay: Octet in-tandem competition on captured CRH; row = 1st mAb; competitor (2nd mAb) PR303394
Description: as §2

biotinylated CRH [8] = molecular target: T3, biotinylated CRH; assay: Octet in-tandem competition on captured CRH; row = 1st mAb; competitor (2nd mAb) PR301777
Description: as §2

[9] = molecular target: T5, human UCN2 peptide, biotinylated; assay: ELISA, hUCN2 (NT biotin) and (CT biotin)
biotinylated CRH [10] = molecular target: T3, biotinylated CRH; assay: ELISA, CRH (NT biotin)
Summary of the method: as §1

biotinylated CRH [11] = molecular target: T3, biotinylated CRH; assay: ELISA, CRH (CT biotin)
Summary of the method: as §1

biotinylated CRH [12] = molecular target: T3, biotinylated CRH; assay: Octet in-tandem competition on captured CRH; row = 1st mAb; competitor (2nd mAb) PR302341-34
Description: as §2

[13] = molecular target: T6, human UCN1 peptide, biotinylated; assay: ELISA, hUCN1 (NT biotin)
Summary of the method: as §1

[14] = molecular target: T7, human UCN3 peptide, biotinylated; assay: ELISA, hUCN3 (NT biotin) and (CT biotin)
biotinylated CRH [15] = molecular target: T3, biotinylated CRH; assay: Octet in-tandem competition on captured CRH; row = 1st mAb; competitor (2nd mAb) PR005660
Description: as §2

[16] = molecular target: T8, CRH (Central Region, NT Biotin); assay: ELISA, CRH central region peptide (NT biotin)
Summary of the method: as §1

[17] = molecular target: T9, CRH (Central Region, CT Biotin); assay: ELISA, CRH central region peptide (CT biotin)
Summary of the method: as §1

[18] = molecular target: T1, corticotropin-releasing hormone (CRH) …; assay: cell-based or functional assay
[19] = molecular target: T1, corticotropin-releasing hormone (CRH) …; assay: cell-based or functional assay
biotinylated CRH [20] = molecular target: T3, biotinylated CRH; assay: CRH ELISA, compared with PR006669
Description: Streptavidin (Thermo, Cat: 21125) was diluted in PBS to a concentration of 2 μg/ml. 100 μl of diluted streptavidin was added per well to ELISA microplates, and the plates were incubated overnight at 4° C. […] Subsequently, plates were washed and incubated with HRP-conjugated goat anti-human IgG (H+L) antibody (Jackson, Cat: 109-035-088) at 37° C. for 1 hour. 100 μL of 3,3′,5,5′-tetramethylbenzidine (TMB) substrate (Biopanda, Cat: TMB-S-003) was added, and the plates were incubated at room temperature for 15 minutes. 100 μL of ELISA stopping solution (Solarbio, Cat #: C1058) was added to terminate the reaction, and the optical density at 450 nm (OD450 nm) was determined by an ELISA plate reader (Molecular Devices, Spectra max 384 plus).

biotinylated CRH [21] = molecular target: T3, biotinylated CRH; assay: Octet BLI, biotinylated CRH on SA sensors

Row | Binder | % Inhibition (biotinylated CRH [3]) | % Inhibition (biotinylated CRH [4]) | % Inhibition (biotinylated CRH [5]) | % Inhibition (biotinylated CRH [7]) | % Inhibition (biotinylated CRH [8]) | % Inhibition (biotinylated CRH [12]) | % Inhibition (biotinylated CRH [15]) | binding result (biotinylated CRH [21]) | further results
1 | B1 | 87% | 65% | 76% | 77% | 80% | 74% | 76% |  | hCRHR1-Luc 0.5 nM CRH IC50 [1]: 1700 pM; binding result [2]: no binding (tested: 100 nM); EC50 [6]: 25 pM; binding result [9]: no binding (tested: 100 nM); EC50 (read off the curve) (biotinylated CRH [10]): ~30 pM; EC50 (read off the curve) (biotinylated CRH [11]): ~30 pM; EC50 (read off the curve) [13]: ~100 pM; binding result [14]: no binding (tested: 100 nM); binding result [16]: no binding (tested: 100 nM); binding result [17]: no binding (tested: 100 nM)
2 | B2 |  |  |  |  |  |  |  |  | IC50 (read off the curve), CRH-induced hCRHR1 luciferase reporter [18]: ~200 pM
3 | B3 | 91% | 95% | 93% | 89% | 90% | 88% | 92% |  | hCRHR1-Luc 0.5 nM CRH IC50 [19]: 260 pM and 644 pM
4 | B4 |  |  |  |  |  |  |  |  | binding result (biotinylated CRH [20]): binds
5 | B5 |  |  |  |  |  |  |  | binds | 
6 | B6 |  |  |  |  |  |  |  | binds | 
